What all share (assay): SEC
Experiment [1] deals with C. difficile replicative helicase CD3657, purified non-tagged (Clostridium difficile 630).
For experiment [2] the target is unchanged. The source holds these as a separate data set.
Experiment [3] concerns the target C. difficile putative helicase loader ATPase CD3654, purified non-tagged (Clostridium difficile 630).
Experiment [4] has as its target C. difficile replicative helicase CD3657, purified non-tagged (Clostridium difficile 630). The source holds these as a separate data set.

Read-outs that look alike come from different tables or passages of the source.

As for “C. difficile replicative helicase CD3657, purified non-tagged (enzyme)”, the stoichiometry N in experiment [1], in experiment [2] and in experiment [4] was 6 in each case. Further, the stoichiometry N (CD3657 per CD3654 (6:6)) in experiment [3] came out at 1.

These data come from doi:10.1101/071829.
